Results published in US20210230570.

B1: FIXa-D203N/F205T/E410N (protein)
chain 1: YNSGKLEEFVQGNLERECMEEKCSFEEAREVFENTERTTEFWKQYVDGDQCESNPCLNGGSCKDDINSYECWCPFGFEGKNCELDVTCNIKNGRCEQFCKNSADNKVVCSCTEGYRLAENQKSCEPAVPFPCGRVSVSQTSKLTR
chain 2: VVGGEDAKPGQFPWQVVLNGKVNATCGGSIVNEKWIVTAAHCVETGVKITVVAGEHNIEETEHTEQKRNVIRIIPHHNYNAAINKYNHDIALLELDEPLVLNSYVTPICIADKEYTNIFLKFGSGYVSGWGRVFHKGRSALVLQYLRVPLVDRATCLRSTKFTIYNNMFCAGFHEGGRDSCQGDSGGPHVTEVEGTSFLTGIISWGEECAMKGKYGIYTKVSRYVNWIKNKTKLT
B2: FIXa-D104N/K106S/R318Y/R338E/E410N (protein)
chain 1: YNSGKLEEFVQGNLERECMEEKCSFEEAREVFENTERTTEFWKQYVDGDQCESNPCLNGGSCKDDINSYECWCPFGFEGKNCELDVTCNIKNGRCEQFCKNSANNSVVCSCTEGYRLAENQKSCEPAVPFPCGRVSVSQTSKLTR
chain 2: VVGGEDAKPGQFPWQVVLNGKVDAFCGGSIVNEKWIVTAAHCVETGVKITVVAGEHNIEETEHTEQKRNVIRIIPHHNYNAAINKYNHDIALLELDEPLVLNSYVTPICIADKEYTNIFLKFGSGYVSGWGRVFHKGYSALVLQYLRVPLVDRATCLESTKFTIYNNMFCAGFHEGGRDSCQGDSGGPHVTEVEGTSFLTGIISWGEECAMKGKYGIYTKVSRYVNWIKNKTKLT
B3: FIXa-Y155F/R318Y/R338E/E410N (protein)
chain 1: YNSGKLEEFVQGNLERECMEEKCSFEEAREVFENTERTTEFWKQYVDGDQCESNPCLNGGSCKDDINSYECWCPFGFEGKNCELDVTCNIKNGRCEQFCKNSADNKVVCSCTEGYRLAENQKSCEPAVPFPCGRVSVSQTSKLTR
chain 2: VVGGEDAKPGQFPWQVVLNGKVDAFCGGSIVNEKWIVTAAHCVETGVKITVVAGEHNIEETEHTEQKRNVIRIIPHHNYNAAINKYNHDIALLELDEPLVLNSYVTPICIADKEYTNIFLKFGSGYVSGWGRVFHKGYSALVLQYLRVPLVDRATCLESTKFTIYNNMFCAGFHEGGRDSCQGDSGGPHVTEVEGTSFLTGIISWGEECAMKGKYGIYTKVSRYVNWIKNKTKLT
B4: FIXa-K228N/R318Y/R338E/R403E/E410N (protein)
chain 1: YNSGKLEEFVQGNLERECMEEKCSFEEAREVFENTERTTEFWKQYVDGDQCESNPCLNGGSCKDDINSYECWCPFGFEGKNCELDVTCNIKNGRCEQFCKNSADNKVVCSCTEGYRLAENQKSCEPAVPFPCGRVSVSQTSKLTR
chain 2: VVGGEDAKPGQFPWQVVLNGKVDAFCGGSIVNEKWIVTAAHCVETGVNITVVAGEHNIEETEHTEQKRNVIRIIPHHNYNAAINKYNHDIALLELDEPLVLNSYVTPICIADKEYTNIFLKFGSGYVSGWGRVFHKGYSALVLQYLRVPLVDRATCLESTKFTIYNNMFCAGFHEGGRDSCQGDSGGPHVTEVEGTSFLTGIISWGEECAMKGKYGIYTKVSEYVNWIKNKTKLT
B5: FIXa-K228N/R338E/R403E (protein)
chain 1: YNSGKLEEFVQGNLERECMEEKCSFEEAREVFENTERTTEFWKQYVDGDQCESNPCLNGGSCKDDINSYECWCPFGFEGKNCELDVTCNIKNGRCEQFCKNSADNKVVCSCTEGYRLAENQKSCEPAVPFPCGRVSVSQTSKLTR
chain 2: VVGGEDAKPGQFPWQVVLNGKVDAFCGGSIVNEKWIVTAAHCVETGVNITVVAGEHNIEETEHTEQKRNVIRIIPHHNYNAAINKYNHDIALLELDEPLVLNSYVTPICIADKEYTNIFLKFGSGYVSGWGRVFHKGRSALVLQYLRVPLVDRATCLESTKFTIYNNMFCAGFHEGGRDSCQGDSGGPHVTEVEGTSFLTGIISWGEECAMKGKYGIYTKVSEYVNWIKEKTKLT
B6: FIXa-R318Y/R403E/E410N (protein)
chain 1: YNSGKLEEFVQGNLERECMEEKCSFEEAREVFENTERTTEFWKQYVDGDQCESNPCLNGGSCKDDINSYECWCPFGFEGKNCELDVTCNIKNGRCEQFCKNSADNKVVCSCTEGYRLAENQKSCEPAVPFPCGRVSVSQTSKLTR
chain 2: VVGGEDAKPGQFPWQVVLNGKVDAFCGGSIVNEKWIVTAAHCVETGVKITVVAGEHNIEETEHTEQKRNVIRIIPHHNYNAAINKYNHDIALLELDEPLVLNSYVTPICIADKEYTNIFLKFGSGYVSGWGRVFHKGYSALVLQYLRVPLVDRATCLRSTKFTIYNNMFCAGFHEGGRDSCQGDSGGPHVTEVEGTSFLTGIISWGEECAMKGKYGIYTKVSEYVNWIKNKTKLT
B7: FIXa-D104N/K106S/I251S/R318Y/R338E/E410N (protein)
chain 1: YNSGKLEEFVQGNLERECMEEKCSFEEAREVFENTERTTEFWKQYVDGDQCESNPCLNGGSCKDDINSYECWCPFGFEGKNCELDVTCNIKNGRCEQFCKNSANNSVVCSCTEGYRLAENQKSCEPAVPFPCGRVSVSQTSKLTR
chain 2: VVGGEDAKPGQFPWQVVLNGKVDAFCGGSIVNEKWIVTAAHCVETGVKITVVAGEHNIEETEHTEQKRNVSRIIPHHNYNAAINKYNHDIALLELDEPLVLNSYVTPICIADKEYTNIFLKFGSGYVSGWGRVFHKGYSALVLQYLRVPLVDRATCLESTKFTIYNNMFCAGFHEGGRDSCQGDSGGPHVTEVEGTSFLTGIISWGEECAMKGKYGIYTKVSRYVNWIKNKTKLT
B8: FIXa-D203N/F205T/R338E/R403E (protein)
chain 1: YNSGKLEEFVQGNLERECMEEKCSFEEAREVFENTERTTEFWKQYVDGDQCESNPCLNGGSCKDDINSYECWCPFGFEGKNCELDVTCNIKNGRCEQFCKNSADNKVVCSCTEGYRLAENQKSCEPAVPFPCGRVSVSQTSKLTR
chain 2: VVGGEDAKPGQFPWQVVLNGKVNATCGGSIVNEKWIVTAAHCVETGVKITVVAGEHNIEETEHTEQKRNVIRIIPHHNYNAAINKYNHDIALLELDEPLVLNSYVTPICIADKEYTNIFLKFGSGYVSGWGRVFHKGRSALVLQYLRVPLVDRATCLESTKFTIYNNMFCAGFHEGGRDSCQGDSGGPHVTEVEGTSFLTGIISWGEECAMKGKYGIYTKVSEYVNWIKEKTKLT
B9: FIXa-D203N/F205T/R338E (protein)
chain 1: YNSGKLEEFVQGNLERECMEEKCSFEEAREVFENTERTTEFWKQYVDGDQCESNPCLNGGSCKDDINSYECWCPFGFEGKNCELDVTCNIKNGRCEQFCKNSADNKVVCSCTEGYRLAENQKSCEPAVPFPCGRVSVSQTSKLTR
chain 2: VVGGEDAKPGQFPWQVVLNGKVNATCGGSIVNEKWIVTAAHCVETGVKITVVAGEHNIEETEHTEQKRNVIRIIPHHNYNAAINKYNHDIALLELDEPLVLNSYVTPICIADKEYTNIFLKFGSGYVSGWGRVFHKGRSALVLQYLRVPLVDRATCLESTKFTIYNNMFCAGFHEGGRDSCQGDSGGPHVTEVEGTSFLTGIISWGEECAMKGKYGIYTKVSRYVNWIKEKTKLT
B10: FIXa-K228N/R318Y/E410N (protein)
chain 1: YNSGKLEEFVQGNLERECMEEKCSFEEAREVFENTERTTEFWKQYVDGDQCESNPCLNGGSCKDDINSYECWCPFGFEGKNCELDVTCNIKNGRCEQFCKNSADNKVVCSCTEGYRLAENQKSCEPAVPFPCGRVSVSQTSKLTR
chain 2: VVGGEDAKPGQFPWQVVLNGKVDAFCGGSIVNEKWIVTAAHCVETGVNITVVAGEHNIEETEHTEQKRNVIRIIPHHNYNAAINKYNHDIALLELDEPLVLNSYVTPICIADKEYTNIFLKFGSGYVSGWGRVFHKGYSALVLQYLRVPLVDRATCLRSTKFTIYNNMFCAGFHEGGRDSCQGDSGGPHVTEVEGTSFLTGIISWGEECAMKGKYGIYTKVSRYVNWIKNKTKLT
B11: FIXa-D203N/F205T/R338A (protein)
chain 1: YNSGKLEEFVQGNLERECMEEKCSFEEAREVFENTERTTEFWKQYVDGDQCESNPCLNGGSCKDDINSYECWCPFGFEGKNCELDVTCNIKNGRCEQFCKNSADNKVVCSCTEGYRLAENQKSCEPAVPFPCGRVSVSQTSKLTR
chain 2: VVGGEDAKPGQFPWQVVLNGKVNATCGGSIVNEKWIVTAAHCVETGVKITVVAGEHNIEETEHTEQKRNVIRIIPHHNYNAAINKYNHDIALLELDEPLVLNSYVTPICIADKEYTNIFLKFGSGYVSGWGRVFHKGRSALVLQYLRVPLVDRATCLASTKFTIYNNMFCAGFHEGGRDSCQGDSGGPHVTEVEGTSFLTGIISWGEECAMKGKYGIYTKVSRYVNWIKEKTKLT
B12: FIXa-D203N/F205T/R318Y (protein)
chain 1: YNSGKLEEFVQGNLERECMEEKCSFEEAREVFENTERTTEFWKQYVDGDQCESNPCLNGGSCKDDINSYECWCPFGFEGKNCELDVTCNIKNGRCEQFCKNSADNKVVCSCTEGYRLAENQKSCEPAVPFPCGRVSVSQTSKLTR
chain 2: VVGGEDAKPGQFPWQVVLNGKVNATCGGSIVNEKWIVTAAHCVETGVKITVVAGEHNIEETEHTEQKRNVIRIIPHHNYNAAINKYNHDIALLELDEPLVLNSYVTPICIADKEYTNIFLKFGSGYVSGWGRVFHKGYSALVLQYLRVPLVDRATCLRSTKFTIYNNMFCAGFHEGGRDSCQGDSGGPHVTEVEGTSFLTGIISWGEECAMKGKYGIYTKVSRYVNWIKEKTKLT

What was measured:
[1] = molecular target: antithrombin III (plasma purified human AT-III), in complex with unfractionated heparin
[2] = molecular target: plasma purified human AT-III (antithrombin III), in complex with full-length unfractionated heparin (AT-III/UFH)

Sequence of Factor X, P00742 (P00742 whole entry, looked up): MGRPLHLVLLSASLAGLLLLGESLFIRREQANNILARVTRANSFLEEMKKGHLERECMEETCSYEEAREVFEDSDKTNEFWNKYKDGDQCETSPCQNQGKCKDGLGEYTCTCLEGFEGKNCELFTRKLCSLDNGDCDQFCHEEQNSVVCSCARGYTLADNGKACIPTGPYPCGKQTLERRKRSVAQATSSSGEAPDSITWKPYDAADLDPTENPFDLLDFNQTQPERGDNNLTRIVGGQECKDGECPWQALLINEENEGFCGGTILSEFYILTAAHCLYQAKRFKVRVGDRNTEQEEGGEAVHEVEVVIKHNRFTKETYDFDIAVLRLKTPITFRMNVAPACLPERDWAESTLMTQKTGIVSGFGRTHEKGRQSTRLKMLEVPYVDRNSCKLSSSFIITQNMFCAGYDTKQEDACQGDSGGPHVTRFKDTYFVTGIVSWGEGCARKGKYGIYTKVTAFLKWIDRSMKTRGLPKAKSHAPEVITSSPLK
Sequence of Factor X (FX), P00742 (P00742 whole entry, looked up): as above

Protein | K0.5 [1] [nM] | K0.5-mut/K0.5-wt [1] | % of WT (kcat/KM) (Factor X, P00742) [%] | KM (Catalytic activity of FIXa variants) (Factor X, P00742) [µM] | kcat/KM (Factor X, P00742) [M⁻¹ s⁻¹] | kcat/KM for FX activation (Xase assay with FVIIIa, PC/PS vesicles, Ca2+) (Factor X (FX), P00742) [M⁻¹ s⁻¹] | kcat/KM (M^-1s^-1), FX activation by FIXa in the Xase complex (Factor X (FX), P00742) [M⁻¹ s⁻¹] | K0.5-mut/K0.5-wt (against Catalyst Biosciences WT FIXa) [2]
B1 | 377 | 19.5 | 91 | 0.0455 | 4.2e+07 | 4.2e+07 |  | 
B2 | 6330 | 327 |  | 0.0189 |  |  | 2.6e+08 | 
B3 | 1100 | 56.8 |  | 0.016 |  |  | 3.7e+08 | 
B4 |  |  |  |  |  |  |  | > 517
B5 | 1680 | 86.8 | 105 | 0.0592 |  | 4.8e+07 |  | 
B6 | 7070 | 366 |  | 0.0883 |  |  | 2.5e+07 | 
B7 |  |  |  |  |  |  |  | 464
B8 | 1520 | 78.6 | 41 | 0.0511 | 1.9e+07 | 1.9e+07 |  | 
B9 | 1170 | 60.5 | 228 | 0.0241 | 1e+08 | 1e+08 |  | 
B10 | 475 | 24.6 |  | 0.042 |  |  | 1.2e+08 | 
B11 | 423 | 21.9 | 135 | 0.0385 | 6.2e+07 | 6.2e+07 |  | 
B12 | 7230 | 374 | 44 | 0.0475 | 2e+07 | 2e+07 |  | 
